Assay results as given in US20160009800A1 (XOMA US, published 2016).
Values belong to the binder of their own block, whether it stands above or below them.

Tests used:
[1] = molecular target: T1, mouse insulin receptor (mouse, UniProt P15208 28-1372); experiment: flow cytometry, biotinylated IgG on mINSR-CHOK1 cells
T1 construct: whole, on cells; also called muINSR; mINSR

[2] = molecular target: T2, human insulin receptor (human, UniProt P06213 28-1382); experiment: cell-based or functional assay
[3] = molecular target: T1, mouse insulin receptor; experiment: cell-based or functional assay
[4] = molecular target: T3, rabbit insulin receptor (rabbit, UniProt A0A5F9DAH8 25-1377); experiment: FACS on monocytes of rabbit PBMC, without insulin
T3 construct: whole, on cells
Excerpt: Cynomolgus monkey whole blood was obtained from California National Primate Research Center (Davis, Calif.) and rabbit whole blood was obtained from LifeSource Biomedical, LLC (Moffett Field, Calif.). Human PBMC were purified using Ficoll Hypaque from buffy coats obtained from the American Red Cross. Cynomolgus and Rabbit PBMC were than purified using Ficoll Hypaque gradients (Pharmacia). Purified PBMC were frozen and stored in liquid nitrogen prior to use in the assay. Human, cynomolgus and rabbit PBMC were thawed and washed with FACS Buffer (0.5% BSA and 0.1% NaN3 in PBS). Once the cells were prepared, they were used in the FACS staining assay at a final concentration of 2×10⁶ cells/ml.
After washing twice with FACS buffer, cells were stained with various markers to capture monocytes population. Human and cynomolgus cells were stained with CD45 and CD14. Rabbit cells were stained with CD11b and CD14. Antibodies were than incubated for 20 minutes and washed twice with FACS Buffer. Cells were than fixed with 2% paraformaldehyde and equal volume of FACS Buffer was added prior to cell analysis. The cells were analyzed on a FACScan™ (Becton-Dickinson, Franklin Lakes, N.J.) and the data was analyzed using both FloJo™ (Tristar, Paso Robles, Calif.) and GraphPad Prism 5 (GraphPad Software, La Jolla, Calif.).

[5] = molecular target: T4, human insulin receptor complexed with human insulin (human, UniProt P06213 28-1382; P01308 25-54; P01308 90-110); experiment: KinExA antibody depletion by hINSR8-CHOK1 cells, with 175 nM insulin
T4 construct: whole, on cells;mature; also called hINSR-hINS complex; INS/INSR complex
Description: (§1) Beads were rotated at room temperature for 6 hours then allowed to settle. Supernatant was replaced with PBS with 50 mg/mL BSA Fraction V (Sigma-Aldrich, St. Louis, Mo.) and rotated overnight at 4° C. […] On the KinExA 3000 the sample was injected at 0.25 mL/minute for 240 seconds, then rinsed for 60 seconds in running buffer (PBS with 0.05% sodium azide), then 240 seconds of the detection solution was injected, followed by a final 90 second wash at 1 mL/minute. The difference in voltage from an early initial time-point and a time point near the end of the run was measured and used to calculate affinities. The INSR concentration on the cells was estimated at 2.5×10⁵ receptors/cell. Affinity was determined using the KinExA software (Sāpidyne, Boise Id.) and EC50's were calculated by non-linear fit in Prism (GraphPad Software, La Jolla Calif.).
(§2) Samples were incubated overnight at 4° C. for 18 hours then centrifuged to pellet cells and supernatants were removed for testing on the KinExA. […] Detection solution used was R-PE-(Fab′)2 fragment goat anti-Human IgG(H+L) (Jackson Immuno Research, West Grove Pa.).

[6] = molecular target: T2, human insulin receptor; experiment: FACS, serum-starved CHO-K1 cells expressing human INSR, no insulin [cont'd]
Description: (§3) Twenty five microliter aliquots of cells were plated into 96 well plates, mixed with 25 ul of antibody or PPE and incubated on ice for 1 h.
(§4) The cells were then washed once with FACS buffer and the binding of the antibody was detected by the addition of 25 ul of an appropriate fluorochrome-conjugated secondary antibody. […] After a final 15 min incubation on ice the cells were washed and the pellets resuspended in FACS buffer. The cells were analyzed on a FACSCAN™ (Becton-Dickinson, Milipitas, Calif.) and the data analyzed in both FLOWJO™ (Treestar, Ashland, Oreg.) and Microsoft Excel™.

[7] = molecular target: T1, mouse insulin receptor; experiment: FACS, serum-starved CHO-K1 cells expressing mouse INSR, no insulin [cont'd]
Description: as §3, §4

[8] = molecular target: T4, human insulin receptor complexed with …; experiment: FACS, serum-starved CHO-K1 cells expressing human INSR, with insulin [cont'd]
Description: as §3, §4

[9] = molecular target: T5, mouse insulin receptor complexed with human insulin (mouse; human, UniProt P15208 28-1372; P01308 25-54; P01308 90-110); experiment: FACS, serum-starved CHO-K1 cells expressing mouse INSR, with insulin [cont'd]
T5 construct: whole, on cells;mature; also called muINSR/hINS complex
Description: as §3, §4

[10] = molecular target: T4, human insulin receptor complexed with …; experiment: FACS, CHO-K1 human INSR cells, signal with insulin divided by signal without insulin [cont'd]
Description: as §3, §4

[11] = molecular target: T5, mouse insulin receptor complexed with …; experiment: FACS, CHO-K1 mouse INSR cells, signal with insulin divided by signal without insulin [cont'd]
[12] = molecular target: T2, human insulin receptor; experiment: cell-based or functional assay; remark: listed apart in the source
[13] = molecular target: T3, rabbit insulin receptor; experiment: FACS on monocytes of rabbit PBMC and on CHO cells expressing rabbit insulin receptor, without insulin
[14] = molecular target: T2, human insulin receptor; experiment: cell-based or functional assay; remark: listed apart in the source
[15] = molecular target: T1, mouse insulin receptor; experiment: cell-based or functional assay; remark: listed apart in the source
[16] = molecular target: T4, human insulin receptor complexed with …; experiment: KinExA, affinity with insulin against affinity without insulin
Description: as §1, §2

[17] = molecular target: T2, human insulin receptor; experiment: KinExA antibody depletion by hINSR8-CHOK1 cells, without insulin
Description: as §1, §2

[18] = molecular target: T2, human insulin receptor; experiment: cell-based or functional assay; remark: listed apart in the source

B1: Ab086 (antibody, IgG2, V domains shown)
VH: EVQLVETGGGVVRPGGSLRLSCAASGFTFGDYGMSWVRQAPGKGLEWVSGINWNGGSTGYADSVKGRFTISRDNAKNSLYLQMNSLRAEDTALYYCARDILGVEFDYWGQGTLVTVSS
VL: QSALTQPASVSGSLGQSITISCTGTSSDIGLYKFVSWYQQHPGKAPKLMIYDVSYRPSGVSNRFSGSSSGNTASLTISGLQAEDEADYYCNSYTSSSTLVVFGGGTKLTVL
notes: also called XPA.015.219
binding result [1]: binds

B3: Ab004 (antibody, V domains shown)
VH: EVQLLESGGGLVQPGGSLRLSCAASGFTFRNFAMMWVRQAPGKGLEWVSGISWNSGSIGYADSVKGRFTISRDNSKNTLYLQMNSLRAEDTAVYYCARPSGAYPTPFDNWGQGTLVTVSS
VL: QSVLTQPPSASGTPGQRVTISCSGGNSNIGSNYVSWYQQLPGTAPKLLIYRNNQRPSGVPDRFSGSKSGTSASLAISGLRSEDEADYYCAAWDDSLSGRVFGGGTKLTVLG
notes: Sole member of Bin 7; also called XPA.015.066
binding result [1]: binds

B4: Ab078 (antibody, IgG2, V domains shown)
VH: QVQLVQSGGGLVQPGGSLRLSCAASGFTFSSYSMNWVRQAPGKGLEWVSSISSSSSYIYYADSVKGRFTISRDNAKNSLYLQMNSLRAEDTAVYYCARDQGGELLGFTGYFDYWGQGTLVTVSS
VL: DIQLTQSPSSLSASVGDRVTITCRASQGISSALAWYQQKPGKAPKVLIYDASSLERGVPSRFSGSGTGTDFTLTISSLQPEDFASYYCHQFNSYPDTFGQGTRLEIK
notes: also called XPA.015.244
pAKT assay, fold-decrease in insulin EC50 relative to isotype control Ab [12]: 3.3 fold
fold-change in insulin EC50 (pAkt) relative to isotype control, 20 ug/ml Ab078, human INSR CHO-K1 cells [2]: 3 fold
Kd [5]: 0.34 nM
FACS area under log transformed data MFI [6]: 11
FACS area under log transformed data MFI [8]: 704
FACS area under log transformed data MFI [9]: 217
FACS area under log transformed data MFI ratio (+insulin/-insulin) [10]: 66
FACS area under log transformed data MFI ratio (+insulin/-insulin) [11]: 17.6
binding result [13]: no binding

B6: Ab070 (antibody, IgG2, V domains shown)
VH: EVQLVQSGAEVKKPGESLKISCKGSGYSFTSYWIGWVRQMPGKGLEWMGIIYPGDSDTRYSPSFQGQVTISADKSISTSYLQWSSLRASDTAMYYCARLGSGWYGNDYWGQGTLVTVSS
VL: SSELTQDPAVSVALGQTVRITCQGDSLRSYYTSWYQQKPGQAPVLVIFGKNNRPSGIPDRFSGSSSGNTASLTITGAQAEDEADYYCNSRDSSGNYAVFGGGTQLTVL
notes: Negative modulator; also called XPA.015.226
fold change in insulin EC50 (pAKT) relative to isotype control mAb, 20 ug/mL Ab070 [18]: 17 fold
FACS area under log transformed data MFI [6]: 283
FACS area under log transformed data MFI [7]: 587
FACS area under log transformed data MFI [9]: 389
FACS area under log transformed data MFI ratio (+insulin/-insulin) [11]: 0.66

The remaining lines, values ahead:

fold-change in insulin EC50 (pAkt) relative to isotype control, 10 ug/ml Ab077, human INSR CHO-K1 cells [2]: 9 fold
fold-change in insulin EC50 (pAkt) relative to isotype control, 20 ug/ml Ab077, mouse INSR CHO-K1 cells [3]: 8 fold
binding result [4]: no binding
Kd [5]: 6.4 nM
FACS area under log transformed data MFI [6]: 127
FACS area under log transformed data MFI [7]: 45
FACS area under log transformed data MFI [8]: 268
FACS area under log transformed data MFI [9]: 103
FACS area under log transformed data MFI ratio (+insulin/-insulin) [10]: 2.12
FACS area under log transformed data MFI ratio (+insulin/-insulin) [11]: 2.28
B2: Ab077 (antibody, IgG2, V domains shown)
VH: EVQLVESGGGVVQPGGSLRLSCAASGFTFSSYWMTWVRQAPGKGLEWVANINQDGSEKHYVDSVKGRFTISRDNAKNSLYLQMNSLRGEDTAVYYCARGRGAWAFDYWGQGTLVTVSS
VL: DIQMTQSPSSLSASVGDRVTITCRASQGISSWLAWYQQKPGKAPKLLIYAASSLQSGVPSRFSGSGSGTDFTLTISSLQPEDFATYYCQQANSFPITFGQGTRLEIK
notes: also called XPA.015.243

positive modulation of insulin-dependent signaling, pAKT assay, CHOK1 human INSR [14]: ~10 fold
positive modulation of insulin-dependent signaling, pAKT assay, CHOK1 mouse INSR [15]: ~10 fold
pAKT assay, fold-decrease in insulin EC50 relative to isotype control Ab [12]: 9.7 fold
fold-change in insulin EC50 (pAkt) relative to isotype control, 2 ug/ml Ab001, human INSR CHO-K1 cells [2]: 12 fold
fold-change in insulin EC50 (pAkt) relative to isotype control, 2 ug/ml Ab001, mouse INSR CHO-K1 cells [3]: 7 fold
Fold Improvement with Insulin [16]: 103 fold
Kd [17]: 12 nM
Kd [5]: 0.116 nM
B5: Ab001 (antibody, V domains shown)
VH: EVQLLESGGGLVQPGGSLRLSCAASGFTFSSYEMNWVRQAPGKGLEWVSSISSSSSYIYYADSVKGRFTISRDNSKNTLYLQMNSLRAEDTAVYYCARVRWYKDSDAFDIWGQGTLVTVSS
VL: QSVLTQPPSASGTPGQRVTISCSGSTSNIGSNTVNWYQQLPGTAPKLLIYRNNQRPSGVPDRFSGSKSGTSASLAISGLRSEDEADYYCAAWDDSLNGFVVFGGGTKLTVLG
notes: Positive modulator, Bin 1; also called XPA.015.138
